Laboratory results published in paper PMC6936867 (2019).

B1: FcγRIIa R131 (receptor)
chain: QAAAPPKAVLKLEPPWINVLQEDSVTLTCQGARSPESDSIQWFHNGNLIPTHTQPSYRFKANNNDSGEYTCQTGQTSLSDPVHLTVLSEWLVLQTPHLEFQEGETIMLRCHSWKDKPLVKVTFFQNGKSQKFSRLDPTFSIPQANHSHSGDYHCTGNIGYTLFSSKPVTITVQVPSMGSSSPMG
B2: FcγRIIa H131 (receptor)
chain: QAAAPPKAVLKLEPPWINVLQEDSVTLTCQGARSPESDSIQWFHNGNLIPTHTQPSYRFKANNNDSGEYTCQTGQTSLSDPVHLTVLSEWLVLQTPHLEFQEGETIMLRCHSWKDKPLVKVTFFQNGKSQKFSHLDPTFSIPQANHSHSGDYHCTGNIGYTLFSSKPVTITVQVPSMGSSSPMGIIVAVVIATAVAAIVAAVVALIYCRKKRISANSTDPVKAAQFEPPGRQMIAIRKRQLEETNNDYETADGGYMTLNPRAPTDDDKNIYLTLPPNDHVNSNN
B3: FcγRIIb (receptor)
chain: TPAAPPKAVLKLEPQWINVLQEDSVTLTCRGTHSPESDSIQWFHNGNLIPTHTQPSYRFKANNNDSGEYTCQTGQTSLSDPVHLTVLSEWLVLQTPHLEFQEGETIVLRCHSWKDKPLVKVTFFQNGKSKKFSRSDPNFSIPQANHSHSGDYHCTGNIGYTLYSSKPVTITVQAPSSSPMGIIVAVVTGIAVAAIVAAVVALIYCRKKRISALPGYPECREMGETLPEKPANPTNPDEADKVGAENTITYSLLMHPDALEEPDDQNRI

Molecular target: CAP256 pIgG
Assay: SPR

**Q.** Which Kd does the source give for B1 here?
**A.** 4.6 µM

**Q.** For B2, which Kd is on record?
**A.** 5.8 µM

**Q.** With B3 as the binder, how does the Kd read?
**A.** 5.3 µM
